According to patent publication US20160145598:
Like-named read-outs stand apart in the source and are kept apart here.

Assays:
thrombin [1] = test system: thrombin
thrombin [2] = biological target: thrombin; remark: listed apart in the source

Row | Molecule | appearance of FXa after incubation with thrombin (Pefachrome FXa8595 hydrolysis at 405 nm) (thrombin [1]) | appearance of FXa after incubation with thrombin (Pefachrome FXa8595 hydrolysis at 405 nm) (thrombin [2])
1 | FX-WT (human factor X from an optimized nucleotide sequence, with C-terminal HPC4 tag) | the plasma and WT FXs being negative since they do not have a thrombin recognition site | 
2 | plasma factor X (protein) chain 1: ANSFLEEMKKGHLERECMEETCSYEEAREVFEDSDKTNEFWNKYKDGDQCETSPCQNQGKCKDGLGEYTCTCLEGFEGKNCELFTRKLCSLDNGDCDQFCHEEQNSVVCSCARGYTLADNGKACIPTGPYPCGKQTLER chain 2: SVAQATSSSGEAPDSITWKPYDAADLDPTENPFDLLDFNQTQPERGDNNLTRIVGGQECKDGECPWQALLINEENEGFCGGTILSEFYILTAAHCLYQAKRFKVRVGDRNTEQEEGGEAVHEVEVVIKHNRFTKETYDFDIAVLRLKTPITFRMNVAPACLPERDWAESTLMTQKTGIVSGFGRTHEKGRQSTRLKMLEVPYVDRNSCKLSSSFIITQNMFCAGYDTKQEDACQGDSGGPHVTRFKDTYFVTGIVSWGEGCARKGKYGIYTKVTAFLKWIDRSMKTRGLPKAKSHAPEVITSSPLK |  | the plasma and WT FXs being negative since they do not have a thrombin recognition site
